We go through twelve molecules from patent publication US20160264653A1 (published 2016).

For orientation: IC50 means the concentration at which inhibition is half-maximal. Higher therefore signals weaker potency in that assay. The Kd is a measure of binding affinity in units of concentration.

For assay [1], the target named is T1, hEFNA4-Fc (human, UniProt P01857 100-330 = IgG part). As to the kind of experiment: cell surface binding inhibition (flow cytometry); 0.1 ug/ml hEphrinA4-Fc.
For assay [2], the target named is T2, mEFNA4-Fc (mouse;human, UniProt O08542 26-176; P01857 100-330 = IgG part). As to the kind of experiment: cell surface binding inhibition (flow cytometry); 0.1 ug/ml mEphrinA4-Fc. In general terms: A flow cytometer gives signals particle by particle.
The target in assay [3] is T1, hEFNA4-Fc. As to the kind of experiment: cell surface binding inhibition (flow cytometry); 1.0 ug/ml hEphrinA4-Fc.
Assay [4] deals with T2, mEFNA4-Fc. Kind of assay: cell surface binding inhibition (flow cytometry); 1.0 ug/ml mEphrinA4-Fc.
For assay [5], the target named is T3, human ephrin-A4-His (UniProt P52798 26-170).
T3 chain: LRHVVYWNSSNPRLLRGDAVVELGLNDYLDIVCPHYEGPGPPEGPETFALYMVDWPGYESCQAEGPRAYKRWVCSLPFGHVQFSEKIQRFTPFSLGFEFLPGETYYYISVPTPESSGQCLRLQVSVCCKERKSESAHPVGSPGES
As to the kind of experiment: label-free interaction analysis.

Assay [6] has as its target T3, human ephrin-A4-His. As to the kind of experiment: Biacore. A general note: Surface plasmon resonance follows binding to a sensor surface in real time, without labels.
The target of assay [7] is T3, human ephrin-A4-His. Kind of assay: ForteBIO. (In BLI a coated tip is dipped into the sample, and binding shifts an interference pattern.)
The target in assay [8] is T4, mouse ephrin-A4 homolog (recombinantly expressed, monomeric) (mouse, UniProt O08542 26-175).
T4 chain: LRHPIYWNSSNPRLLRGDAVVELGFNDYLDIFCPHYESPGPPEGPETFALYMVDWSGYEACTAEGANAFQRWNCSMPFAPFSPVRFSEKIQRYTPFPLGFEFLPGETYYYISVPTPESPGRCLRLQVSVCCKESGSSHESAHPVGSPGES
As to the kind of experiment: label-free interaction analysis.

B1: E15.3 Ab (antibody, V domains shown)
VH: EVQVVESGGDLVKPGGSLKLSCAASGFTFSTYGMSWVRQTPDKRLEWVATISSGGTYTYYPDSVKGRFKISRDNAKDTLYLQMSSLKSEDTAMYYCTRHDPNDGYYFLFAYWGQGTLVIVSA
VL: SIGRTQIPKFLPVSAGDRVTMTCKASQSVGNNVAWYQQKAGQSPKLLIYYASNRYTGVPDRFTGSGSGTDFTFTISSVQVEDLAVYFCQQHYSSPLTFGAGTKLELK
Regarding B1, the concentration for half-maximal inhibition (IC50) stood at 1.14 µg/mL with hEFNA4-Fc [1], 2.09 µg/mL with mEFNA4-Fc [2], 20.1 µg/mL with hEFNA4-Fc [3] and 16.7 µg/mL with mEFNA4-Fc [4].

B2: SC4.15 (Murine mAb) (antibody, V domains shown)
VH: EVQVVESGGDLVKPGGSLKLSCAASGFTFSTYGMSWVRQTPDKRLEWVATISSGGTYTYYPDSVKGRFKISRDNAKDTLYLQMSSLKSEDTAMYYCTRHDPNDGYYFLFAYWGQGTLVIVSA
VL: SIGRTQIPKFLPVSAGDRVTMTCKASQSVGNNVAWYQQKAGQSPKLLIYYASNRYTGVPDRFTGSGSGTDFTFTISSVQVEDLAVYFCQQHYSSPLTFGAGTKLELK
For B2, in the assay with human ephrin-A4-His [5], the Kd amounted to 2.7 nM.

B3: SC4.15 (antibody, V domains shown)
VH: EVQVVESGGDLVKPGGSLKLSCAASGFTFSTYGMSWVRQTPDKRLEWVATISSGGTYTYYPDSVKGRFKISRDNAKDTLYLQMSSLKSEDTAMYYCTRHDPNDGYYFLFAYWGQGTLVIVSA
VL: SIGRTQIPKFLPVSAGDRVTMTCKASQSVGNNVAWYQQKAGQSPKLLIYYASNRYTGVPDRFTGSGSGTDFTFTISSVQVEDLAVYFCQQHYSSPLTFGAGTKLELK
Turning to B3, binding in the assay with human ephrin-A4-His [6] was put at a Kd of 4.8 nM.

B4: E47.3 Ab (antibody, V domains shown)
VH: EVQLQQSGPELVKPGASVKISCTASGYTFTYFYMNWVKQSQGKSLEWVGQINPNNGGTAYNHKFRGKTTLTVDKSSNTAFMELRSLTSEDSAVYFCARWVGTHYFDYWGQGTTLTVSS
VL: DIVLTQSPASLPVSLGQRATISCRASQSVSSSSYTYIHWYQQKPGQPPKLLINFASNLESGVPARFSVSGSGTDFTLNIHPVEGEDTATYYCQHSWEIPPTFGGGTKLEIK
With B4, the IC50 with hEFNA4-Fc [1] was around 0.124 µg/mL; with mEFNA4-Fc [2], around 0.0183 µg/mL; with hEFNA4-Fc [3] it was 1.54 µg/mL; with mEFNA4-Fc [4], around 0.0217 µg/mL.

B5: SC4.2 (antibody, V domains shown)
VH: QVQLQQSGAELVRPGTSVTLSCKASGYTFTDYEMHWVKQTPVLGLEWIGAFDPETGNTVYNQKFKGKATLTADKSPNTAYMELISLTSEDSAVYYCARGYPAWFGYWGQGTLVTVSA
VL: DVVMTQIPLSLPVTLGDQASISCRSSQSLAHTNGNTYLHWYLQKPGQSPKLLIYKVSNRFSGVPDRFSGSGSGTDFTLKISRVEAEDLGVYFCSQDTHVPPTFGGGTKLEMK
Consider B5, for which the Kd with human ephrin-A4-His [7] worked out at 20 nM.

B6: hSC4.47 (antibody, V domains shown)
VH: QVQLVQSGAEVKKPGASVKVSCKASGYTFTYFYMNWVRQAPGQGLEWVGQINPNNGGTAYAQKFQGRVTMTRDTSTSTVYMELSSLRSEDTAVYYCARWVGTHYFDYWGQGTTLTVSS
VL: EIVLTQSPATLSLSPGERATLSCRASQSVSSSSYTYIHWYQQKPGQAPRLLINFASNLESGIPARFSGSGSGTDFTLTISSLEPEDFAVYYCQHSWEIPPTFGGGTKLEIK
B6: in assay [8], the dissociation constant Kd is above 100 nM.

B7: hSC4.22 (antibody, V domains shown)
VH: QVQLVQSGAEVKKPGASVKVSCKASGYTFTGYYIHWVRQAPGQGLEWMGWIYPGNFNTKYNERFKGRVTMTTDTSTSTAYMELRSLRSDDTAVYYCAREDGSPYYAMDYWGQGTSVTVSS
VL: DIVMTQTPLSLSVTPGQPASISCRSSQSLVHSNGNTFLYWYLQKPGQSPQLLIYRVSNRFSGVPDRFSGSGSGTDFTLKISRVEAEDVGVYYCFQATHVPWTFGGGTKVEIK
As for B7, the figures for the Kd (with human ephrin-A4-His [5]; in assay [8]) were 3.8 nM and above 100 nM, respectively.

B8: SC4.22 (antibody, V domains shown)
VH: QIQLQQSGPELVKPGASVKISCKASGYTFTGYYIHWVKQRPGQGLEWIGWIYPGNFNTKYNERFKGMATLTVDTSSSTAYMQLSSLTSEDSAVYLCAREDGSPYYAMDYWGQGTSVTVSS
VL: DVVMTQTPLSLPVSLGDQASISCRSSQSLVHSNGNTFLYWYLQKPGQSPKLLIYRVSNRFSGVPDRFSGSGSGTDFTLKISRVEAEDLGVYFCFQATHVPWTFGGGTKLEIK
In the case of B8, the Kd with human ephrin-A4-His [6] was 3.1 nM.

B9: SC4.22 (Murine mAb) (antibody, V domains shown)
VH: QIQLQQSGPELVKPGASVKISCKASGYTFTGYYIHWVKQRPGQGLEWIGWIYPGNFNTKYNERFKGMATLTVDTSSSTAYMQLSSLTSEDSAVYLCAREDGSPYYAMDYWGQGTSVTVSS
VL: DVVMTQTPLSLPVSLGDQASISCRSSQSLVHSNGNTFLYWYLQKPGQSPKLLIYRVSNRFSGVPDRFSGSGSGTDFTLKISRVEAEDLGVYFCFQATHVPWTFGGGTKLEIK
As for B9, in the assay with human ephrin-A4-His [5], the Kd came out at 3.1 nM.

B10: SC4.31 (antibody, V domains shown)
VH: QVQLQQPGAELVRPGASVKLSCKASGYTFTRDWMHWIKQRPGQGLDWIGTIHPYDSETHYNQNFKDKATLTVDKSSSTAYMQLSSLTSEDSAVYYCVTFIKTMVDTYYYAMDYWGQGTSVTVSS
VL: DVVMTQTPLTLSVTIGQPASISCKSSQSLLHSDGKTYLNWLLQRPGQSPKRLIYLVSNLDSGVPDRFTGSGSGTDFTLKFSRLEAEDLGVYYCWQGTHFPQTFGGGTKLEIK
Turning to B10, in the assay with human ephrin-A4-His [6], the Kd amounted to 11 nM.

B11: hSC4.15 (antibody, V domains shown)
VH: EVQLVESGGGLVKPGGSLRLSCAASGFTFSTYGMSWVRQAPGKGLEWVATISSGGTYTYYPDSVKGRFKISRDNAKNSLYLQMNSLRAEDTAVYYCTRHDPNDGYYFLFAYWGQGTLVTVSS
VL: EIVLTQSPGTLSLSPGERATLSCKASQSVGNNVAWYQQKPGQAPRLLIYYASNRYTGIPDRFSGSGSGTDFTLTISRLEPEDFAVYYCQQHYSSPLTFGAGTKLEIK
With B11, the Kd is 4.8 nM with human ephrin-A4-His [5] and 3.4 nM in assay [8].

B12: SC4.5 (antibody, V domains shown)
VH: QVQLKQSGPGLVAPSQSLSITCTVSGFSLTTYGVDWVRQSPGKGLEWLGVIWGGGSTNYNSALKSRLSISKDNSKSQVFLKMNSLQTDDTAMYYCASDWAYWGQGTLVTVSA
VL: DIVMTQSQKFMSTSVGDRVTVTCKASQNVGTNVAWFQQKSGQSPKPLIHSASYRYSGVPDRFTGSGSGTDFTLTITNVQSEDLVAYFCQQYKRYPYTFGGGTKLEIKR
B12 gave a Kd with human ephrin-A4-His [6] of 0.3 nM.
